According to patent US20190336589A1, “IMMUNIZING PEPTIDE, METHOD FOR PRODUCING IMMUNIZING PEPTIDE, PHARMACEUTICAL COMPOSITION FOR IMMUNE DISEASE CONTAINING SAME, AND METHOD FOR TREATING IMMUNE DISEASE” (OSAKA UNIVERSITY, priority 2015, published 2019):

Key:
[1] = biological target: T1, 3A9 TCR / complex of HEL antigen and I-A^k on LK35.2 cells (Mus musculus, UniProt P01910+P06343); assay: Immunization of mice with HEL protein or HEL peptides; serum inhibition of soluble single-chain 3A9 TCR binding to HEL protein-pulsed LK35.2 cells; assay type: in vivo, mice (B10.A strain); settings: immunogen with CFA subcutaneously; serum two weeks after administration
T1 construct: LK35.2 cells expressing I-A^k (the MHC class II molecule); endogenous in cells; host or cells: LK35.2 cells (I-A^k); the 3A9 scTCR-Fc is culture supernatant of transfected 293T cells
T1 sequence (P01910 24-256): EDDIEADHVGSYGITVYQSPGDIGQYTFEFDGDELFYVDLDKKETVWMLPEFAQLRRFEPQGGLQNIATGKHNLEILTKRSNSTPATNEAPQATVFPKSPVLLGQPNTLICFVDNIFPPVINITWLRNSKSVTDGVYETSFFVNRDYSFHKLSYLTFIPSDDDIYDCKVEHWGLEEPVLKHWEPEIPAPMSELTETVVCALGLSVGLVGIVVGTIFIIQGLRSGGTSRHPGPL
T1 sequence (P06343 28-263): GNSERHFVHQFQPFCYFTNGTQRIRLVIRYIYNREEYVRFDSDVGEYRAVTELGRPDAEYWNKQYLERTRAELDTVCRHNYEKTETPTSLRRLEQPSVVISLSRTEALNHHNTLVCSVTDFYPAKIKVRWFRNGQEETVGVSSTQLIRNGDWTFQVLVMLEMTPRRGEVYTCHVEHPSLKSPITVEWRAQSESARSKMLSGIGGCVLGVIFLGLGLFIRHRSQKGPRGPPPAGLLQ
Procedure: 30 nmol of the HEL peptide 41-70 or the HEL peptide 48-61 was mixed with a complete Freund's adjuvant. Each of the thus-obtained mixture was administered subcutaneously to mice (B10.A strain). Two weeks after the administration, whole blood was collected from each mouse, and serum was collected from the whole blood.
LK35.2 cells were pulsed with the HEL protein in the same manner as in the item (2) in Example 1B, except that the HEL protein was added instead of the HEL protein, the HEL peptide 41-70, and the HEL peptide 48-61. The cultured LK35.2 cells were collected from the wells. Thereafter, the collected LK35.2 cells were used in inhibition of TCR recognition by an antibody to be described below.
Flow cytometry analysis was performed in the same manner as in the item (3) in Example 1B, except that serums of the HEL peptide 41-70-immunized mice or serums of the HEL peptide 48-61-immunized mice were used in addition to the serums of the HEL protein-immunized mice and that the LK35.2 cells obtained in the item (1) in Example 2B were used instead of the LK35.2 cells obtained in the item (2) in Example 1B. As Control 1, the flow cytometry analysis was performed in the same manner, except that serums collected from non-immunized mice were used instead of the serums of the HEL protein-immunized mice, the serums of the HEL peptide 41-70-immunized mice, and the serums of the HEL peptide 48-61-immunized mice. As Control 2, the flow cytometry analysis was performed in the same manner, except that the HEL protein was not added.
30 nmol of the HEL peptide 48-77 (Y53A L56A) was mixed with a complete Freund's adjuvant, and the resultant mixture was administered subcutaneously to mice (B10.A strain). Two weeks after the administration, whole blood was collected from each mouse, and serum was collected from the whole blood.
Flow cytometry analysis was performed in the same manner as in the item (3) in Example 1B, except that serums of the HEL peptide 48-77 (Y53A L56A)-immunized mice were used in addition to the serums of the HEL protein-immunized mice and that the LK35.2 cells obtained in the item (2) in Example 4 were used instead of the LK35.2 cells obtained in the item (2) in Example 1B. As controls, the flow cytometry analysis was performed in the same manner, except that serums collected from non-immunized mice were used instead of the serums of the HEL protein-immunized mice and the serums of the HEL peptide 48-77 (Y53A L56A)-immunized mice.

[2] = biological target: T2, complex of HEL peptide and MHC class II molecule (I-A^k) on 293 T cells (Mus musculus, UniProt P01910+P06343); assay: Flow cytometry of serum IgG from HEL protein-immunized mice binding to 293 T cells expressing I-A^k pulsed with HEL peptides
T2 construct: α-chain of mouse MHC class II molecule (I-A^k); β-chain of mouse MHC class II molecule (I-A^k); expressed in transfected cells; host or cells: 293T cells (pME18S vectors, co-transfected with pMX-GFP)
T2 sequence (P01910 24-256): as the sequence (P01910 24-256) above
T2 sequence (P06343 28-263): as the sequence (P06343 28-263) above
Description: From mouse spleen cDNA, polynucleotides encoding the α-chain and the β-chain of a mouse MHC class II molecule (I-A^k) shown below were cloned into pME18S vectors, respectively. Thus, a mouse MHC class II molecule (I-A^k) α-chain expression vector (I-A^k a expression vector) and a mouse MHC class II molecule (I-A^k) β-chain expression vector (I-A^k β expression vector) were produced. As a GFP expression vector, pMX-GFP (obtained from the Division of Cellular Therapy in the Advanced Clinical Research Center of the Institute of Medical Science, the University of Tokyo) was used.
293T cells (obtained from RIKEN BioResource Center) were used as host cells to which the above-described expression vectors were to be introduced. First, the 293 T cells were seeded in a 24-well plate at a density of 2×10^5 cells/500 μl/well. Next, the expression vectors were introduced to the 293T cells using a PEI max solution obtained by dissolving a transfection 5 reagent (PEI max, Cosmo Bio Co., Ltd.) in purified water at a concentration of 2 mg/ml. Specifically, a mixture of 2 μl of the PEI max solution and 50 μl of a serum-free medium (OPTI-MEM®, GIBCO) was added to 50 μl of a serum-free medium containing 0.26 μg of the I-A^k c expression vector, 0.26 μg of the I-A^k f expression vector, and 0.26 μg of the GFP expression vector. Then, they were mixed together, whereby a transfection reagent was prepared. Thereafter, the transfection reagent was added to each well to introduce the expression vectors to the 293 T cells. After the introduction, the 293 T cells were cultured in a DMEM medium at 37° C. for 12 hours. Next, each of HEL peptides shown in Table 3 below was added to the wells at a concentration of 20 μmol/l. The 293 T cells were cultured for another 24 hours under the above-described culture conditions, whereby the 293 T cells were pulsed with the HEL peptide. The cultured 293 T cells were collected from the wells. Thereafter, the collected 293 T cells were used in antibody detection to be described below. The HEL peptides used in the present example and the following examples were obtained from SCRUM Inc., Eurofins Genomics K.K., or GenScript. In the HEL protein, a T-cell epitope presented by the MHC class II molecule I-A^k is a peptide consisting of the amino acid sequence of SEQ ID NO: 1 (DGSTDYGILQINSR). Thus, among the HEL peptides shown in Table 3 below, HEL peptide 41-70 corresponds to the immunizing peptide.
100 μg of a HEL protein (Sigma) was mixed with a complete Freund's adjuvant (CFA, Sigma), and the resultant mixture was administered subcutaneously to mice (B10.A strain). Two weeks after the administration, whole blood was collected from each mouse, and serum was collected from the whole blood.
The serum collected from each of the HEL protein-immunized mice was diluted 100-fold with a HANKS' BALANCED SALT SOLUTION (HBSS, Sigma) to obtain a diluted serum. Next, 10 μl of the diluted serum was added to the 293 T cells obtained in the above item (1) to cause a reaction. The 293 T cells after the reaction were washed, and then stained with an APC-labeled anti-mouse IgG (H+L) antibody (code-number: 715-136-150, Jackson ImmunoResearch). Thereafter, the stained 293 T cells were analyzed by flow cytometry (FACSCalibur™, Becton Dickinson) (peptide non-added groups). As peptide added groups, the HEL peptides shown in Table 3 above were added to the diluted serums, respectively, at a concentration of 40 μmol/l. Then, the diluted serums containing the respective HEL peptides were added to the 293 T cells pulsed with the corresponding HEL peptides to cause a reaction. Except for the above, the peptide added groups were analyzed by the flow cytometry analysis in the same manner.
Peptide non-added groups were analyzed by flow cytometry in the same manner as in the above item (3), except that, instead of the HEL peptides shown in Table 3 above, the HEL peptide 41-70, the HEL peptide 48-61, and HEL peptides shown in Table 4 below were used. […]

[3] = peptide added groups: same HEL peptide added to diluted serum at 40 μmol/l, serum of HEL protein-immunized mice
[4] = peptide non-added groups, serum of HEL protein-immunized mice diluted 100-fold, I-A^k 293 T cells pulsed with 20 μmol/l peptide

Row | Sequence | binding of soluble single-chain TCR to LK35.2 cells pulsed with HEL protein after reaction with serums of mice immunized with the substance [1] | serum IgG binding to 293 T cells pulsed with the HEL peptide [2, 3] | serum IgG binding to 293 T cells pulsed with the HEL peptide [2, 4]
1 | DGSTDYGILQINSR (Gallus gallus domesticus) [HEL peptide 48-61, reference compound] | observed | not observed | not observed
2 | QATNRNTDGSTDYGILQINSRWWCNDGRTP (Gallus gallus domesticus) [HEL peptide 41-70] | not observed | observed | observed
